# Legend:
# [1] = target: T1, Mouse-Fc-tagged SARS-CoV2 S1-RBD (Sino Biologicals) recombinant protein (SARS-CoV-2, UniProt P0DTC2 319-541); assay: competition ELISA: blocks S1-RBD-mFc binding to coated ACE-2 ECD
# T1 construct: domain: S1-RBD
# [2] = target: T1, Mouse-Fc-tagged SARS-CoV2 S1-RBD (Sino …); assay: ELISA on coated S1-RBD-mFc
Binder,IC50 [1] [µg/mL],IC90 [1] [µg/mL],EC50 [2] [µg/mL]
"460 (bispecific antibody, also called LC of P043.A.00020.D06 with a C-terminal fusion of a scFv of anti-S1 antibody; HC of P043.A.00020.D06 as IgG1-LALA-LS) heavy chain: QSVEESGGRLVTPGTPLTLTCTVSGFSLSSYAMNWVRQAPGKGLEWIGIISSSGSTYYASWAKGRFTISKTSTTVDLKITSPTTEDTATYFCARVGAGYAGYGYDNYYGMDPWGPGTLVTVSSASTKGPSVFPLAPSSKSTSGGTAALGCLVKDYFPEPVTVSWNSGALTSGVHTFPAVLQSSGLYSLSSVVTVPSSSLGTQTYICNVNHKPSNTKVDKRVEPKSCDKTHTCPPCPAPEAAGGPSVFLFPPKPKDTLMISRTPEVTCVVVDVSHEDPEVKFNWYVDGVEVHNAKTKPREEQYNSTYRVVSVLTVLHQDWLNGKEYKCKVSNKALPAPIEKTISKAKGQPREPQVYTLPPSREEMTKNQVSLTCLVKGFYPSDIAVEWESNGQPENNYKTTPPVLDSDGSFFLYSKLTVDKSRWQQGNVFSCSVLHEALHSHYTQKSLSLSPGK light chain fused to scFv: AIQMTQSPSSLAASVGDTVTITCKASEDIGYGLNWYQQKLGIAPKLLIYGANTLESGVPSRFSGSGSETDYTLTISSVQAEDAGIYYCQQGYSTPLTFGAGTKVEIKRTVAAPSVFIFPPSDEQLKSGTASVVCLLNNFYPREAKVQWKVDNALQSGNSQESVTEQDSKDSTYSLSSTLTLSKADYEKHKVYACEVTHQGLSSPVTKSFNRGECDVPGGSGGGGSGGGGSGGGGSQMQLVQSGTEVKKPGESLKISCKGSGYGFITYWIGWVRQMPGKCLEWMGIIYPGDSETRYSPSFQGQVTISADKSINTAYLQWSSLKASDTAIYYCAGGSGISTPMDVWGQGTTVTVGGGGSGGGGSGGGGSGGGGSDIQLTQSPDSLAVSLGERATINCKSSQSVLYSSINKNYLAWYQQKPGQPPKLLIYWASTRESGVPDRFSGSGSGTDFTLTISSLQAEDVAVYYCQQYYSTPYTFGCGTKVEIK",0.0765,5.69,0.0153
"455 (bispecific antibody, also called LC of P043.A.00017.E07 with a C-terminal fusion of a scFv of anti-S1 antibody; HC of P043.A.00017.E07 as IgG1-LALA-LS) heavy chain: QSVEESGGRLVTPGTPLTLTCTVSGFSLSSYAMSWVRQAPGKGLEWIGIISSSGSTYYASWAKGRFTISKTSTTVDLKITSPTTEDTATYFCARAMYPGYSTGVYNIWGPGTLVTVSLASTKGPSVFPLAPSSKSTSGGTAALGCLVKDYFPEPVTVSWNSGALTSGVHTFPAVLQSSGLYSLSSVVTVPSSSLGTQTYICNVNHKPSNTKVDKRVEPKSCDKTHTCPPCPAPEAAGGPSVFLFPPKPKDTLMISRTPEVTCVVVDVSHEDPEVKFNWYVDGVEVHNAKTKPREEQYNSTYRVVSVLTVLHQDWLNGKEYKCKVSNKALPAPIEKTISKAKGQPREPQVYTLPPSREEMTKNQVSLTCLVKGFYPSDIAVEWESNGQPENNYKTTPPVLDSDGSFFLYSKLTVDKSRWQQGNVFSCSVLHEALHSHYTQKSLSLSPGK light chain fused to scFv: AIQMTQSPSSLAASVGDTVTITCKASEDIGYELNWYQQKLGIAPKLLIYGANTLESGVPSRFSGSGSETDYTLTISSVQAEDAGIYYCQQGYNTPNTFGAGTKVEIKRTVAAPSVFIFPPSDEQLKSGTASVVCLLNNFYPREAKVQWKVDNALQSGNSQESVTEQDSKDSTYSLSSTLTLSKADYEKHKVYACEVTHQGLSSPVTKSFNRGECDVPGGSGGGGSGGGGSGGGGSQMQLVQSGTEVKKPGESLKISCKGSGYGFITYWIGWVRQMPGKCLEWMGIIYPGDSETRYSPSFQGQVTISADKSINTAYLQWSSLKASDTAIYYCAGGSGISTPMDVWGQGTTVTVGGGGSGGGGSGGGGSGGGGSDIQLTQSPDSLAVSLGERATINCKSSQSVLYSSINKNYLAWYQQKPGQPPKLLIYWASTRESGVPDRFSGSGSGTDFTLTISSLQAEDVAVYYCQQYYSTPYTFGCGTKVEIK",0.0481,0.868,0.0116
"461 (bispecific antibody, also called LC of P043.A.00018.C02 with a C-terminal fusion of a scFv of anti-S1 antibody; HC of P043.A.00018.C02 as IgG1-LALA-LS) heavy chain: QSVEESGGRLVTPGTPLTLTCTVSGFSLSSYAMSWVRQAPGKGLEWIGIINSGRSTYYASWAKGRFTISKTSTTVDLKITSPTTEDTATYFCARDATSIGYYRYYGMDPWGPGTLVTVSSASTKGPSVFPLAPSSKSTSGGTAALGCLVKDYFPEPVTVSWNSGALTSGVHTFPAVLQSSGLYSLSSVVTVPSSSLGTQTYICNVNHKPSNTKVDKRVEPKSCDKTHTCPPCPAPEAAGGPSVFLFPPKPKDTLMISRTPEVTCVVVDVSHEDPEVKFNWYVDGVEVHNAKTKPREEQYNSTYRVVSVLTVLHQDWLNGKEYKCKVSNKALPAPIEKTISKAKGQPREPQVYTLPPSREEMTKNQVSLTCLVKGFYPSDIAVEWESNGQPENNYKTTPPVLDSDGSFFLYSKLTVDKSRWQQGNVFSCSVLHEALHSHYTQKSLSLSPGK light chain fused to scFv: AIQMTQSPSSLAASVGDTVTITCKASEDIGYGLNWYQQKLGIAPKLLIYGANTLESGVPSRFSGSGSETDYTLTISSVQAEDAGIYYCQQGYSTPLTFGAGTKVEIKRTVAAPSVFIFPPSDEQLKSGTASVVCLLNNFYPREAKVQWKVDNALQSGNSQESVTEQDSKDSTYSLSSTLTLSKADYEKHKVYACEVTHQGLSSPVTKSFNRGECDVPGGSGGGGSGGGGSGGGGSQMQLVQSGTEVKKPGESLKISCKGSGYGFITYWIGWVRQMPGKCLEWMGIIYPGDSETRYSPSFQGQVTISADKSINTAYLQWSSLKASDTAIYYCAGGSGISTPMDVWGQGTTVTVGGGGSGGGGSGGGGSGGGGSDIQLTQSPDSLAVSLGERATINCKSSQSVLYSSINKNYLAWYQQKPGQPPKLLIYWASTRESGVPDRFSGSGSGTDFTLTISSLQAEDVAVYYCQQYYSTPYTFGCGTKVEIK",0.0525,0.913,0.0128
"454 (bispecific antibody, also called LC of P043.A.00023.A08 with a C-terminal fusion of a scFv of anti-S1 antibody; HC of P043.A.00023.A08 as IgG1-LALA-LS) heavy chain: QSVEESGGRLVTPGTPLTLTCTVSGFSLSKYAMSWVRQAPGKGLEWIGIISSGGSTYYASWAKGRFTISKTSSTTVDLKITSPTTEDTATYFCARAGYPGYSPHYFNIWGPGTLVTVSLASTKGPSVFPLAPSSKSTSGGTAALGCLVKDYFPEPVTVSWNSGALTSGVHTFPAVLQSSGLYSLSSVVTVPSSSLGTQTYICNVNHKPSNTKVDKRVEPKSCDKTHTCPPCPAPEAAGGPSVFLFPPKPKDTLMISRTPEVTCVVVDVSHEDPEVKFNWYVDGVEVHNAKTKPREEQYNSTYRVVSVLTVLHQDWLNGKEYKCKVSNKALPAPIEKTISKAKGQPREPQVYTLPPSREEMTKNQVSLTCLVKGFYPSDIAVEWESNGQPENNYKTTPPVLDSDGSFFLYSKLTVDKSRWQQGNVFSCSVLHEALHSHYTQKSLSLSPGK light chain fused to scFv: AIQMTQSPSSLAASVGDTVTITCKASEDIGYELNWYQQKLGIAPKLLIYGANTLESGVPSRFTGSGSETDYTLTISSVQAEDAGIYYCQQGYSTPPTFGAGTKVEIKRTVAAPSVFIFPPSDEQLKSGTASVVCLLNNFYPREAKVQWKVDNALQSGNSQESVTEQDSKDSTYSLSSTLTLSKADYEKHKVYACEVTHQGLSSPVTKSFNRGECDVPGGSGGGGSGGGGSGGGGSQMQLVQSGTEVKKPGESLKISCKGSGYGFITYWIGWVRQMPGKCLEWMGIIYPGDSETRYSPSFQGQVTISADKSINTAYLQWSSLKASDTAIYYCAGGSGISTPMDVWGQGTTVTVGGGGSGGGGSGGGGSGGGGSDIQLTQSPDSLAVSLGERATINCKSSQSVLYSSINKNYLAWYQQKPGQPPKLLIYWASTRESGVPDRFSGSGSGTDFTLTISSLQAEDVAVYYCQQYYSTPYTFGCGTKVEIK",0.0435,0.453,0.0178
